PMC2655719 (PLoS ONE, 2009)

What was measured:
Conditions in all cases: both partners purified
[1] = biological target: T1, H-Ras (recombinant, guanine nucleotide-loaded) (UniProt P01112 1-189); test: ITC; 300 µM RGS14(RBD1.RBD2) titrated into 20 µM H-Ras loaded with GPPNHP; 20°C; 20 mM HEPES pH 7.5, 150 mM NaCl, 1 mM MgCl2, 0.5 mM TCEP; single binding site model
T1 construct: H-Ras expressed from pPROEXHTb(H-Ras); Treated with calf intestinal phosphatase, EDTA, TEV protease and GPPNHP before gel filtration; used loaded with GPPNHP or with GDP (two assays); also called H-Ras(GPPNHP); H-Ras(GDP); source: E. coli BL21(DE3), purified (Ni-NTA, gel filtration)
T1 sequence (P01112 whole entry): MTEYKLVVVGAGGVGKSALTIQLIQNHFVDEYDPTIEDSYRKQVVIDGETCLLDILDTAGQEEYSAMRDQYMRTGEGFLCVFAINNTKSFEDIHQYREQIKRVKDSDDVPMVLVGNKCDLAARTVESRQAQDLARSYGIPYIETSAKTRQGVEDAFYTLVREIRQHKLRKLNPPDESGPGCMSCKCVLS

[2] = biological target: T1, H-Ras (recombinant, guanine …); test: ITC; 300 µM RGS14(RBD1.RBD2) titrated into 20 µM H-Ras loaded with GDP; 20°C; 20 mM HEPES pH 7.5, 150 mM NaCl, 1 mM MgCl2, 0.5 mM TCEP; single binding site model
[3] = biological target: T1, H-Ras (recombinant, guanine …); test: as above; remark: listed apart in the source
[4] = biological target: T1, H-Ras (recombinant, guanine …); test: ITC; 300 µM RGS14(RBD1.RBD2) titrated into 20 µM H-Ras loaded with GPPNHP; 20°C; 20 mM HEPES pH 7.5, 150 mM NaCl, 1 mM MgCl2, 0.5 mM TCEP; single binding site model; remark: listed apart in the source

B1: RGS14(RBD1.RBD2) (domain or fragment)
chain: PGKYCCVYLPDGTASLALARPGLTIRDMLAGICEKRGLSLPDIKVYLVGNEQALVLDQDCTVLADQEVRLENRITFELELTALERVVRISAKPTKRLQEALQPILEKHGLSPLEVVLHRPGEKQPLDLGKLVSSVAAQRLVLDTLPG
In the case of B1, the Ka [1] is reported as 101000 M⁻¹, the dH [1] is reported as -1.81 ± 0.04 kcal/M and the “stoichiometry N” value [1] is reported as 1.03 ± 0.02. The Kd [2] was greater than 200 µM, the Ka [3] was 23500 M⁻¹ and the dH [3] was -7.1 ± 0.5 kcal/M. The “stoichiometry N” value [3] was 1.05 ± 0.06 and the Kd [4] was roughly 10 µM.
